Where two headings read alike, the source gives them in different places.

This note sets out measurements from PMC3202562, “A Broad Set of Different Llama Antibodies Specific for a 16 kDa Heat Shock Protein of Mycobacterium tuberculosis” (PLoS ONE, 2011).

For assay [1], the target named is T1, purified recombinant 16 kDa heat shock protein of M. tuberculosis (Mycobacterium tuberculosis, UniProt P9WMK1).
T1 construct: also called recombinant 16 kDa protein; recombinant 16 kDa hsp; source: E. coli BL21-AI, purified (urea lysis, Ni-NTA); not shown: AVI-tag, C-terminal, kept; His6, C-terminal, kept
The assay can be described thus: far-Western, overlay or dot blot. To be noted: both partners purified.

In assay [2] the target is 16 kDa heat shock protein of M. tuberculosis, in M. tuberculosis lysate (Mycobacterium tuberculosis (lysates of …, UniProt P9WMK1)).
Assay [3] addresses T1, purified recombinant 16 kDa heat shock ….

T1 sequence (P9WMK1 whole entry): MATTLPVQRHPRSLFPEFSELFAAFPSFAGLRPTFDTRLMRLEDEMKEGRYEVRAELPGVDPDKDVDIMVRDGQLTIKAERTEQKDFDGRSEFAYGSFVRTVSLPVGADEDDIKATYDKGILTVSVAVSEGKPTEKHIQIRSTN
Chain of 16 kDa heat shock protein of M. tuberculosis, in M. tuberculosis lysate (Mycobacterium tuberculosis (P9WMK1 whole entry): as above

B1: VHH A-28 (VHH)
VHH: QVQLQDSGGGLVQAGDSLRLSCTYSGRSFSNHAMGWFRQAPGKERGFVAAIGWINGGTYYADSVKGRFIISRDNDKNTLYLQMNNLKPEDTAVYYCAARNALRSISFNLSEYAYWGQGTQVTVSS
notes: source: E. coli BL21-AI, purified (urea lysis, Ni-NTA)
On to B1, for which the binding result in assay [1] was “binds”.

B2: A-93 (VHH)
VHH: QVQLQESGGGLVQAGGSLRLSCAASRRLYSSYSLGWFRQAPGKEREFVAALGWIANGTYYADSAKGRFTISRGNAMVFLQMNSLKSEDTAVYYCAARLGSVREAPREYTYWGQGTQVTVSS
With B2, the binding result in assay [2] and in assay [3] was “binds” each time.
